Measured values: paper PMC4001774

Molecular target: CaM-GST on Sepharose beads (UniProt P0DP23)
Experiment: pull-down

Chain of CaMKIIα-Venus (P11275 whole entry): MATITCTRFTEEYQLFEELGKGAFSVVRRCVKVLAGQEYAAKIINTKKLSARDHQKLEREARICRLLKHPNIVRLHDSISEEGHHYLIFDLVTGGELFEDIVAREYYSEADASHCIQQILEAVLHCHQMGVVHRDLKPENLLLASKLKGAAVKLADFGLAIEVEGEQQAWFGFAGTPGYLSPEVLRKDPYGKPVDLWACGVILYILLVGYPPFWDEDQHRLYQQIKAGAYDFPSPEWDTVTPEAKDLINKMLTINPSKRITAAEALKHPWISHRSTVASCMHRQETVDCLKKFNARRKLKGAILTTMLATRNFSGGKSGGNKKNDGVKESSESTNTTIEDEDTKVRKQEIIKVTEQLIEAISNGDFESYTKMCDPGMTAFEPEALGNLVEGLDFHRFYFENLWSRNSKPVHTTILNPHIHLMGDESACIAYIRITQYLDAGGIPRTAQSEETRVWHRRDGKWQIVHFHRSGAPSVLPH
Chain of human Ano1(ac) (natural protein) (Q5XXA6 whole entry): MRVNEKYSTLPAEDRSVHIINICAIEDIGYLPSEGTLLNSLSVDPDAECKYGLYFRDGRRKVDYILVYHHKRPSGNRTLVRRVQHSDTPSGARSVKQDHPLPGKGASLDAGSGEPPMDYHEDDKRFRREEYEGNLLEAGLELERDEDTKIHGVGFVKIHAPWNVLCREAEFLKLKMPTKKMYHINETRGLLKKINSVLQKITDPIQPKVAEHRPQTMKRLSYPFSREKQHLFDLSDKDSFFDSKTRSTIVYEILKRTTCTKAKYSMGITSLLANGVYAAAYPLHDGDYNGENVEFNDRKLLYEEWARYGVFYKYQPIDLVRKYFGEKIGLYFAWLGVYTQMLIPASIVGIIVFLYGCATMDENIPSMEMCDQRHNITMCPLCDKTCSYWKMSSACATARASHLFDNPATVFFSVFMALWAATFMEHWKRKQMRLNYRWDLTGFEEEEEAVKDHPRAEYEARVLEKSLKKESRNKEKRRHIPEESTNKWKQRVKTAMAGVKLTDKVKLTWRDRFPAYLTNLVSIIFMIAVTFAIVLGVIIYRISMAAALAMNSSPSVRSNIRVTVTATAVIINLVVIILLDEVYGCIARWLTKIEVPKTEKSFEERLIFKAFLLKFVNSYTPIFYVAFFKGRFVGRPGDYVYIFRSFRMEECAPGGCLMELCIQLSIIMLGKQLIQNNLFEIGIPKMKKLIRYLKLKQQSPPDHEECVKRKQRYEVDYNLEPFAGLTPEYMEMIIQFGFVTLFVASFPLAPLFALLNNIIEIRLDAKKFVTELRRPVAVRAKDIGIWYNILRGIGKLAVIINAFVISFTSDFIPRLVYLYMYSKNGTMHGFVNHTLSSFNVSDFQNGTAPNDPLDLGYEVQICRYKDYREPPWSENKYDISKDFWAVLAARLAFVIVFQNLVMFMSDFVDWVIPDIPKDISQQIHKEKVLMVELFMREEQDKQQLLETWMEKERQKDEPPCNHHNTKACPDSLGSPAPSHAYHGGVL
Chain of mAno1-FLAG(3X) (Q8BHY3 whole entry): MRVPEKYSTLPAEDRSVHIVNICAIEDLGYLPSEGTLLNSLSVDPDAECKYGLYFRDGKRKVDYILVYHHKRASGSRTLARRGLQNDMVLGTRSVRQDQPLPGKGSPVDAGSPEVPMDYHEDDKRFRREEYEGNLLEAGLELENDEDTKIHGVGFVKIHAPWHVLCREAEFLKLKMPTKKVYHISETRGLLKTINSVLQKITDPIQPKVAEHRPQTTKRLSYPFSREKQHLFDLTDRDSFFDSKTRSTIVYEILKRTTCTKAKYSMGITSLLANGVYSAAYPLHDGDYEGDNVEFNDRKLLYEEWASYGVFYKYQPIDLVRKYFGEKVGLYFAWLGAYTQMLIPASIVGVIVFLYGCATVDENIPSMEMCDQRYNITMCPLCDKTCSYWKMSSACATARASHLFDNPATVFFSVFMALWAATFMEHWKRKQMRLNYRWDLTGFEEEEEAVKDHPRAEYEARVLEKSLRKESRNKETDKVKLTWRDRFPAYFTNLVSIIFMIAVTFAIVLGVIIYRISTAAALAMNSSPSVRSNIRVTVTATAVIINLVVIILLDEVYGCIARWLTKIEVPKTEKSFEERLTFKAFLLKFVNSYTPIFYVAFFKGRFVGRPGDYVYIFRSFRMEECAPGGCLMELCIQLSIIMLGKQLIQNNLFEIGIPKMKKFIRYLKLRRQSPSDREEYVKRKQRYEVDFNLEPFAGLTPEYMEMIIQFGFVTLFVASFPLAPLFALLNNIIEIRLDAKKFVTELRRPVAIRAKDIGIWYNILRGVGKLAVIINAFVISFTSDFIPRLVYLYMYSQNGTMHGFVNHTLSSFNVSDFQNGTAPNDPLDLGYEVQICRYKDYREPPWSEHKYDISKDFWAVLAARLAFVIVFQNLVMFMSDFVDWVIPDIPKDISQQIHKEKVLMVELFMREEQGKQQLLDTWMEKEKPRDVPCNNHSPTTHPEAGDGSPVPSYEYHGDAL

Substance | fold bound with Ca2+ over without Ca2+ [fold] | percent of the protein in the lysate that bound [%]
human Ano1(ac) (natural protein) | 2 | < 1
CaMKIIα-Venus (from UniProt P11275 1-478) (enzyme) | 10 | 100
mAno1-FLAG(3X) (from UniProt Q8BHY3 1-960) (natural protein) | – | < 1
